Measured values: article PMC12784961, “Structure of Bacillus subtilis Ku-mediated DNA synaptic complex”

What was measured:
[1] = molecular target: T1, bsKu core L30G (Bacillus subtilis, UniProt O34859 18-244, L30G); assay: EMSA; no significant loss of binding; EMSA: 20 mM HEPES pH 7.5, 150 mM KCl, 1 mM DTT, 50 nM DNA, 30 min at 4°C, 15% native PAGE in 0.5x TBE, SYBR Gold; SEC: same buffer, protein:DNA 1:2, 1 h at 4°C, Superdex 75; settings: protein: recombinant; tags: N-terminal 8xHis-MBP, cleaved; chain copies: 2; blunt
T1 sequence: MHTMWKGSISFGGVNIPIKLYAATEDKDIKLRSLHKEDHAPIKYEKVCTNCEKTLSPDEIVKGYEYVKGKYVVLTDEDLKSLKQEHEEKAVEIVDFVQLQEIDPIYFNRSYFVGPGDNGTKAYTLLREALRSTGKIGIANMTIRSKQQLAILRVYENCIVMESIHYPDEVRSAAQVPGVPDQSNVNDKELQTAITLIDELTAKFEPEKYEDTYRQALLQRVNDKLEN

[2] = molecular target: T2, bsKu core N32E (Bacillus subtilis, UniProt O34859 18-244, N32E); assay: as above; settings: protein: recombinant; tags: N-terminal 8xHis-MBP, cleaved; chain copies: 2; blunt
T2 sequence: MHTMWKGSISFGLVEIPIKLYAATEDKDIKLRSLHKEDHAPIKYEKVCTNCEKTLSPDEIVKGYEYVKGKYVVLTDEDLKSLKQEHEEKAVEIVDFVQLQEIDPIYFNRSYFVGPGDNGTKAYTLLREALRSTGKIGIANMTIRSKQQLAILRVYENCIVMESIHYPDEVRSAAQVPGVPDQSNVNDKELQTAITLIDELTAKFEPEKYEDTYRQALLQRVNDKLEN

B1: 13-bp DNA (dsDNA)
DNA 1: GTACCTGTAGAAG
DNA 2: CTTCTACAGGTAC
- binding result [1]: binds
- binding result [2]: binds
